Data from a protein production outcome set (Wang et al. 2014).

Assay: label from the status in PepcDB records
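Further: failed if final PepcDB status was selected cloned or expressed and not failed if soluble or beyond.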

Row | Sequence | protein production
1 | MNYVVLGASAAGINAVKTLRELDKDSNIVVISKDENVYSRCMLHHVISEHRTLKQINFVDEDFMEQNNVKWIAGKTVKGIDINKKVVQTEDITVNYDKLLIATGASSAIPPIKNLRDGNFVYSVRNIDDIYKIKEKAQNSKNVVIIGAGLVGIDALVGLFKYEQLNISVAFMEKYILDRQLDEYTASVYENKFKEKGVKFYPSASIQEIVLDNSKNVTGVAFSNGEVLDADMVIVATGVKPNADFLDGTGIEYDRGIIIDDMCQTTQKDIYAAGDVVGKNAIWPLAVKQGIVAAYNMVGKDKKIEDEFAFKNSMNFMDIPTISIGMNTPVDDSYKVLTRHGINDYKKFVFKDNVIYGAVIQGDISYVGVLTYLIKNKVEIYDLENRIFDICYADFFNIKENGEFCYSV | failed
2 | MPAAHPSAISFARQTKAIAMAAKIVPAPDYEDRVRASFARQQAMATIGAELTLVTPGIIEIEMPYSAALTQQHGFLHAGVISTALDSACGYAAFSLMPENSGVLTIEFKVNLLAPGRGERFLFRGSVTKPGRTIIVADGQAYAFAADGEAKLIATMTGTMMTVVGRDGIAG | failed
3 | MPAFVTFGRILFAVLFIYTGATKLFAIQATADFIATKVVVPDIIAPYAKQIETATAMTTPQLLAIAVGALEIIAGLMIALNFGARFFAMLLIVYVAVATVLFYDFWNLAAPDNAKMLVDALKNLSIIGALCMIIGYGRATRPVEAAYGDV | failed
4 | MPAGAVRRRLGRRAGGWENGGMSDSSPARPAAPVLDVWCELQCPDCHTALDDVRALRARYGDRLEVRLRHFPLEKHKYAFAAAQAAEEAVAQGRGWPYAEAVLDRVAELDRKGEPFLVEVARELGLDAEEFDTALIDGRHILIVDADQAEGKAIGVTGTPTYVIGGERLDGGKSQDGLRERIEEIADRLLAQPRD | failed
5 | MPAIQSELDVNGEDFARNREAMLAAVAGFRELEQKVLDKAAEARPKFEKRGQLLPRERLALLLDPGAPFLELSSLAGYKLHDDKDGTQAGGGIIAGIGYIAGVRCLVSASNSAIKGGTISPTGLKKTLRLQQIAMENKLPVVTLTESGGANLNYAAEIFVEGARGFANQARISAMGIPQVTVVHGSSTAGGAYQPGLSDYVVVVRGKAKMFLAGPPLLKAATGEIASDEELGGAELHAQVAGTAEYLAENDADGVRLAREIVGMLPWNAQLPARPARSWREPLYPVEELLGVVPADPKKPYDVREIVARIADGSEFLDFKNEFDGQTVCGHLRIEGHACGLIGNNGPITPQGAAKAAQFIQLCEQSNTPLLFLHNTTGFMVGTESERQGVIKHGSKMIQAVANARVPKLTLVVGGSYGAGNYAMCGRGLDPRFIFAWPNSRTAVMGGAQAGKVLRIVTEEKHAKEGKEADPKMLEMLETVTAQKLDSQSTALYGTASLWDDGLVDPRDSRRLLGYLLDICAEAEARPLKGNSFGVAR | not failed
6 | MPAKDVQICPIAVDTTVFRSRTWDRLKFEIEYGLQRGTTANSYLISADKIALFDPPGESFTDNFVGTLIQRLDLNSLDYVILGHVNANRAHTLKLLLSLAPQATIICSNPAAQNLEKLLADAEVNNPIQVMKGNDHLDLGRGHELTFIPTPSPRYPGQLCTYDPRTEILFTDKLFGAHVCGDQVFDEGWTIYQEDRRYYFDCLLAPAAAQVSAALNKLEAYPAQTYAPSHGPLVRYGLRELTRNYQQWLSEQQAQALEHHHHHH | failed
7 | MPALSGPQYLGEGLKLIMRPGLRLFVLIPLTLNLLVFALLIGFAMQQFSHWVDLLMPSLPDWLSFLQYIVWPLFVLLVLVIVFFTFTMVANIISAPFNGFLSEKVEVVVRGRDDFPPFSWAELLAMIPRTMGREMRKLAYFLPRALVLLVLSFVPGVNLIATPLWILFGIWMMAVQYIDYPADNHKLGWNEMLAWLRSKRWACMGFGGVTYLALLIPLVNLVMMPAAVAGATLFWVREEGERALVK | failed
8 | MPANPRILETMSQLFVSFPHCATLGFEYVGTDGRKPTLKLQWREDLVGNPATGILHGGVITSLVDTCSAIAVTAHLPELETIATLDLRIDYLKSATPGKAIHCTAECYRLASQIAFTRAVCYHDNPADPIAHGVATFMRESSLEHHHHHH | failed
9 | MPAPRYKSGSSKKVYRKAPGNSSIVHYRRKKQSKAVCGACGALLNGVPRGRAVEITKLAKTEKRPERPFGGNLCPKCVKKMMVAKARNFLEHHHHHH | not failed
10 | MPDITISWVAAILGLVVAIVLILKKFNPVYSLFFGAIVGCLIGGASLSDTVAVLLNGTQSIMGTAIRVLAAGMLAGVMMESGAAESIANAIVQKLGEKKAILSLALSTMVITAVGVFIPVAVLIVAPIALSVGKSTGISKLSLLIALSGGGKAGNIISPNPNTIAAANGFDLPLSDVMIAGFIPAVFGLITAVVLANIMRNKGSMVKETDLVEEQTKELLPLKKALIAPVLAIVLLLLNPIGAVLNISFIKSLNIDALYILPFASVVGTIAIGQTKQLAFYASSGLKRVTDTVLILIGAGAIAGLISVSDLSTQIVHLISVMGISGTFLAPISGILMGLAVGSTSTAVILATGSFGPAILDMGTSSLSAAVMVHTGATVIDSVPQGNYFHITAQSMNMTIKERIRVIPYEMCVGGVMTIVATILYGFILN | failed
11 | MPDLMHSELTMSGPEQSLLAGALLGAGLPADAHRHLELAGRDYQSEALAEQHLREAHLLAPDHAAVLIGLYRFYFYKGRLGEALEVAQACLCKAARDNGLASDWRKVRRGDAEFSSYSAVLPRFYLFALKAYAYLQMRLGQLDEGHAAVEKLLELDPTDKVGAAVLLDVWRRIGQDDDD | failed
12 | MPDPAAPGTLRPGGRTARIREAVLLAAGDALAADGFDALDLGEIARRAGVGKTTVYRRWGTPGGLAADLLADMAEQSLPRADTGALEEDLRANARLVVRTLDDPRQGRLFRALIAASLCNEQAAEALHRFYAVRVDEWAGCVRDAVARGEVPDGTDPHGVVAAVSAPLYYALLNTGRSLTEADADRAARAASTAARAGVWVTG | not failed
13 | MPDPQISAIICTHNRDTYLGAAIDSLLVQDFAGEFEVVVIDNGSSDRTREVVEQRSSDSRLKYVFEPTIGLSVARNTGAKFASAEILAYLDDDAVASTHWLQVLYAAYQNYPQLAIAGGKVTLLWPPDTQPPRWLSSGLAGNLGAYDLGDKVVYIQQPGLTPRGLNYSIRRTFLEEIGGFDPHLGRVGKNLLSNEELQMTELALTGGWQVAYLPEALVAHNVAPERLNRSWFLNRGWWQGISECYREQLSGKAGVGQLSRGGERLARGLYKAFRYFSNPAERFDNLVYAYGQIGYLNAVLQGLLFTANNKGSQLEHHHHHH | not failed
14 | MPDPRGGAQGGGVSGQEGPTLISSVQRAFRLMEAVGAHESGVPAKQLARETGLALGTTYHLLRTMVHDGYVRKLEDGTFVLGERLGALHAGSRDQTALSRVRPTLTELRDDLSAAAYLTLYEEGEIRVAEIVDGPKAPRVDLWVGFEDAGHATALGKSVLRELDAEARADYLSRHALNDLTPRTITYRAQLLRSLDAAPRGPAVTDLEEYRLGTACVAVPVRRGDTIGSLGISVDINRTACLDDAVTTLLATAERVSRGLSLTI | failed
15 | MPDSPTLLDLFAEDIGHANQLLQLVDEEFQALERRELPVLQQLLGAKQPLMQQLERNGRARAEILREAGVSLDREGLARYARERADGAELLARGDELGELLERCQQANLRNGRIIRANQASTGSLLNILRGQDAPSLYDSRGGTASSSRQRPLSKA | not failed
16 | MPDTPLLASSQPAAGRRALGLSARLAFAALAGGGGLAWIDRGDTALWLIAPALLWLQVLLTLAGVLALAGGSRLPGALIVALSAGLLVPPLTVEMRLLGFFLAAPPPDQSILTTAQYTLAGALAAGALAWILARRRFGRPPCSWTMLDCGGPGAEIDMDAALASLSAETLRRRDRAYIDAPPPLPFAPRGPPRPPPPTLGGPRLKRMPAGLGGAILCLESDDHTLRVHTTQGSGTLAGRLGDAALDLGESAGLRVHRSWWVAREAVSAIERDGRRMRLILLNGMDVPVSRAHQPKVLAGPWPNLRVS | failed
17 | MPDVLPHPDGPDSTARPWCSVVIPVLHEAVTIAAQVAHVRHVAARCGMEVEVVVADGAKERDTLAALPEGCCTAVASCPGRARQMNAGAGKARGETLLFLHADTHLPPEAFTLLRRARQAGIRAGAFRLGIAATGLWFRLVERLACWRNRLVRTPYGDQAQFFDAALFRAVGGYPDQPLMEDVEVMRRLRKAGERIVILPGRVETSARRWFVEGPLRCTLRNLCLRLLYALGVPAHALSRWYRAHKERP | failed
18 | MPDYDLIAILGPTASGKTPFAAALAAELNTEIISADSRQIYRGMDLGTGKDLEDYTINGRQIPYHLIDIADPGYKYNVFEYQRDFLTAYETIKQKGCLPVLCGGTGLYLESVLKGYRLIPVPENQELRVRLAEKSLEELTAILSSYKTLHNSTDVDTVKRAIRAIEIEEYYAKTPIEEREFPQLNSLIIGVDIDRELRREKITRRLKQRLDDGMVEEVRRLLAEGIQPDDLIYYGLEYKYLTLYAIGKMTYDEMFTGLETAIHQFAKRQMTWFRGMERRGFTIHWVDASLPMEEKINFVKQKLKEFLEHHHHHH | not failed
19 | MPEAPGDTPLALDLLRRLRRALGAAGLPELEAWDLLAAATGWPRKALYGRLTSPLPQEALDRAEALLKRRLQGYPLQYLVGEVEFFGLPLRVEEGVLIPRPETEGLVELALGLPLPPAPRILDVGTGTGAIALALKRALPEAEVYATEVDPKALALARENAERLGLAVVFLPAPLTGGLKDLDLVVSNPPYLPEAYREKAPRELGYESPLALYAGPEGLSVARPLAEEARRSLKPGGYLLLELAPENVHLLARELREKGWKEVAVLPDLAGRDRYLRARRPPEEAEGEEGRLHRPHLPQSLHPHPDHPGPPPEEEEALGQVRLRGEAGVLRGHALLQKALPDPFPHLQEDGPGPGLPRVEEGGAGENLPRGPQALFRVKAGPDEEDAVLVPRPLQDGKPRALGPAEKPHALEAQEEGPPPGRLFQRHGALLRAQAHLPQVEPLAQAGEAFCELALLPLQHPGLDEEALDPPLLLGELLAHPGQGLPEPGGLLLQNLPGAP | failed
20 | MPEEALKTYEELLELEKRIGNKREIGLTLANLAIIKDELGNVEEAIKLMEEARKIFEELKDENNYLISLIDLAHFKYELGEYEEAMKLIREVLRNPVDKEIEVNARLVESEIYAGERKYKEAAISLRNALQRSEDDEELFSLVFDSLTEFLEGLFNESRLEHHHHHH | not failed
21 | MPELKVVVSIKQVPDVDELRIDPVTNNLVREGVPAVINPPDLHAIEEAVRLKERYGAKTIVITMGPPQADSALREALAMGIDEAYLISDRAMAGADTWATSYTISKAVQKLGGADLILFGRRAVDGETEQVGPQTGKWLGLPVIGYVSEIKSLEKDKIVVTRTTEFDEEVIEAPVPVVLTILEVANKPRQPDILSLIKAKTAKVTVWNKDDIKAEPNKIGLAGSPTKVIKVQPPPKTRKAEIIDGKKDVEKAAKWFLDKIFESLKE | failed
22 | MPELPWVEKYRPKKLSEIVNQEEAIEKVRAWIESWLHGHPPKKKALLLAGPPGSGKTTTVYALANEYNFEVIELNASDERTYEKISRYVQAAYTMDILGKRRKIIFLDEADNIEPSGAKEIAKLIDKAKNPIIMAANKYWEVPKEIREKAELVEYKRLTQRDVMNALIRILKREGITVPKEILLEIAKRSSGDLRAAINDLQTVVVGGYEDATQVLAYRDVEKTVFQALGLVFGSDNAKRAKMAMWNLDMSPDEFLLWVDENIPHLYLNPEEIAQAYDAISRADIYLGRAARTGNYSLWKYAIDMMTAGVAVAGRKRRGFVKFYPPNTLKILAESKEEREIRESIIKKIIREMHMSRLQAIETMKIIREIFENNLDLAAHFTVFLGLSEKEVEFLAGKEKAGTIWGKALALRRKLKELGIREEEKPKVEIEEEEEEEEKTEEEKEEIEEKPEEEKEEEKKEKEKPKKGKQATLFDFLKK | failed
